Laboratory results from patent publication US20160304570A1.
Where two headings read alike, the source gives them in different places.

How the values were obtained:
Experiment in all cases: cell-based or functional assay
[1] = biological target: human Nav1.5 voltage-gated sodium channel (human) (UniProt Q14524)
[2] = biological target: human Nav1.3 voltage-gated sodium channel (human) (UniProt Q9NY46)
[3] = biological target: human Nav1.5 voltage-gated sodium channel (human) (UniProt Q14524); remark: listed apart in the source
[4] = biological target: human Nav1.7 voltage-gated sodium channel (human) (UniProt Q15858)
[5] = biological target: human voltage-gated sodium channel Nav1.3 (human) (UniProt Q9NY46)
[6] = biological target: human voltage-gated sodium channel Nav1.7 (human) (UniProt Q15858)
[7] = biological target: human voltage-gated sodium channel Nav1.5 (human) (UniProt Q14524)
[8] = biological target: human voltage-gated sodium channel Nav1.3 (human) (UniProt Q9NY46); remark: listed apart in the source
[9] = biological target: human voltage-gated sodium channel Nav1.7 (human) (UniProt Q15858); remark: listed apart in the source
[10] = biological target: human voltage-gated sodium channel Nav1.5 (human) (UniProt Q14524); remark: listed apart in the source
[11] = biological target: human voltage-gated sodium channel Nav1.3 (human) (UniProt Q9NY46); remark: listed apart in the source
[12] = biological target: human voltage-gated sodium channel Nav1.7 (human) (UniProt Q15858); remark: listed apart in the source
[13] = biological target: human voltage-gated sodium channel Nav1.5 (human) (UniProt Q14524); remark: listed apart in the source
[14] = biological target: human Nav1.3 voltage-gated sodium channel (human) (UniProt Q9NY46); remark: listed apart in the source
[15] = biological target: human Nav1.7 (human) (UniProt Q15858)
[16] = biological target: human Nav1.3 (human) (UniProt Q9NY46)
[17] = biological target: human Nav1.5 (human) (UniProt Q14524)
[18] = biological target: human voltage-gated sodium channel Nav1.3 (human) (UniProt Q9NY46); remark: listed apart in the source
[19] = biological target: human voltage-gated sodium channel Nav1.7 (human) (UniProt Q15858); remark: listed apart in the source
[20] = biological target: human Nav1.7 voltage-gated sodium channel (human) (UniProt Q15858); remark: listed apart in the source
[21] = biological target: human ERG (hERG) potassium channel (human) (UniProt Q12809)
[22] = biological target: human voltage-gated sodium channel Nav1.5 (human) (UniProt Q14524); remark: listed apart in the source
[23] = biological target: human voltage-gated sodium channel Nav1.3 (human) (UniProt Q9NY46); remark: listed apart in the source
[24] = biological target: human voltage-gated sodium channel Nav1.7 (human) (UniProt Q15858); remark: listed apart in the source
[25] = biological target: human voltage-gated sodium channel Nav1.5 (human) (UniProt Q14524); remark: listed apart in the source
[26] = biological target: human voltage-gated sodium channel Nav1.3 (human) (UniProt Q9NY46); remark: listed apart in the source
[27] = biological target: human voltage-gated sodium channel Nav1.7 (human) (UniProt Q15858); remark: listed apart in the source
[28] = biological target: human voltage-gated sodium channel Nav1.5 (human) (UniProt Q14524); remark: listed apart in the source
[29] = biological target: human voltage-gated sodium channel Nav1.3 (human) (UniProt Q9NY46); remark: listed apart in the source
[30] = biological target: human Nav1.4 voltage-gated sodium channel (human) (UniProt P35499)
[31] = biological target: human voltage-gated sodium channel Nav1.4 (human) (UniProt P35499)
human voltage-gated sodium channel Nav1.4 (human), sequence (P35499 whole entry): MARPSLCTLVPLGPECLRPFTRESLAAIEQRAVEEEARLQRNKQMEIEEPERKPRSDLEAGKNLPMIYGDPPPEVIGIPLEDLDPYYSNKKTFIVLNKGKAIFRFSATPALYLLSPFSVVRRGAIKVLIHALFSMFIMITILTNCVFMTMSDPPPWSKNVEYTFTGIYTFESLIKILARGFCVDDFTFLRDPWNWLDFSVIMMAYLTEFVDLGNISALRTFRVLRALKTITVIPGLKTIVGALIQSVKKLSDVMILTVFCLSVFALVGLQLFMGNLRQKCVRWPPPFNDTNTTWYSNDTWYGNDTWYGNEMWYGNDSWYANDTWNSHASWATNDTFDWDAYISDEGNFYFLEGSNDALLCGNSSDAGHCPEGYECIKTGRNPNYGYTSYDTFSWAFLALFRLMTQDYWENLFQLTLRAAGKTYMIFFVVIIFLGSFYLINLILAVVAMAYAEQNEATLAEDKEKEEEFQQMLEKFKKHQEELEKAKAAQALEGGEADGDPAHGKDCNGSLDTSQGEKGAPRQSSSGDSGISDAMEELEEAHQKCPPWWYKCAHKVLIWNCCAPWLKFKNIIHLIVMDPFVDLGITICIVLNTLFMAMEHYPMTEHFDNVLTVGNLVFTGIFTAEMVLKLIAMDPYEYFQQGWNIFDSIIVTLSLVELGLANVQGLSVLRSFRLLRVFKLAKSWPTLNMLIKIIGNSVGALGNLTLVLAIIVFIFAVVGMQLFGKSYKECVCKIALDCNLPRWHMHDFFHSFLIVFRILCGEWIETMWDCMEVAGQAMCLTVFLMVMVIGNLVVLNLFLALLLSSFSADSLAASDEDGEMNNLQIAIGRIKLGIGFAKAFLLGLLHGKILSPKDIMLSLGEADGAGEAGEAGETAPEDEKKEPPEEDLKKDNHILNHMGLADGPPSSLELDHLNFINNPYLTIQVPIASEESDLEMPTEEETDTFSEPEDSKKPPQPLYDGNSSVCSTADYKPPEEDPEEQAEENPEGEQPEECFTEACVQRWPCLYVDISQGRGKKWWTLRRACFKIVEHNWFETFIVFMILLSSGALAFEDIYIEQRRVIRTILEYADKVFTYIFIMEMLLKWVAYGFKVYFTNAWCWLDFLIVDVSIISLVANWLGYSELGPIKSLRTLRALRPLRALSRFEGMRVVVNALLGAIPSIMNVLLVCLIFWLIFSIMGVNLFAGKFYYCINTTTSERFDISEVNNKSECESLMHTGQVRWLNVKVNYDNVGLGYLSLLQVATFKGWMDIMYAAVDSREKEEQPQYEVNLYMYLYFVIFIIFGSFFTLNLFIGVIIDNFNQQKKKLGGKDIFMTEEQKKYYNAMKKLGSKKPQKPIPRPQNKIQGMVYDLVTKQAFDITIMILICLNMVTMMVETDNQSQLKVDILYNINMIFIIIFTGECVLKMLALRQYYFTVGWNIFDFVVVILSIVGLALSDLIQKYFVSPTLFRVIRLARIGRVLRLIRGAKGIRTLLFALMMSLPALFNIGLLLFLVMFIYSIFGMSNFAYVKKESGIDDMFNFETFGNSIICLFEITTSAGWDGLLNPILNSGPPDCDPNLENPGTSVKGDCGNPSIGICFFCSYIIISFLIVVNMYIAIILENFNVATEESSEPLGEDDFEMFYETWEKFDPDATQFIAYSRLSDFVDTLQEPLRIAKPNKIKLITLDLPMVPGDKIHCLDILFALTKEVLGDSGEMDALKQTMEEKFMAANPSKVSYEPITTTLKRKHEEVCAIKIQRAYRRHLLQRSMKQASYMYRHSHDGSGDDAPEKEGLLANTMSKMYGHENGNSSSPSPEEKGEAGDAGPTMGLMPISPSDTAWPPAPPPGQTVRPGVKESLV

human Nav1.4 voltage-gated sodium channel (human), sequence (P35499 whole entry): as above
human Nav1.3 voltage-gated sodium channel (human), sequence (Q9NY46 whole entry): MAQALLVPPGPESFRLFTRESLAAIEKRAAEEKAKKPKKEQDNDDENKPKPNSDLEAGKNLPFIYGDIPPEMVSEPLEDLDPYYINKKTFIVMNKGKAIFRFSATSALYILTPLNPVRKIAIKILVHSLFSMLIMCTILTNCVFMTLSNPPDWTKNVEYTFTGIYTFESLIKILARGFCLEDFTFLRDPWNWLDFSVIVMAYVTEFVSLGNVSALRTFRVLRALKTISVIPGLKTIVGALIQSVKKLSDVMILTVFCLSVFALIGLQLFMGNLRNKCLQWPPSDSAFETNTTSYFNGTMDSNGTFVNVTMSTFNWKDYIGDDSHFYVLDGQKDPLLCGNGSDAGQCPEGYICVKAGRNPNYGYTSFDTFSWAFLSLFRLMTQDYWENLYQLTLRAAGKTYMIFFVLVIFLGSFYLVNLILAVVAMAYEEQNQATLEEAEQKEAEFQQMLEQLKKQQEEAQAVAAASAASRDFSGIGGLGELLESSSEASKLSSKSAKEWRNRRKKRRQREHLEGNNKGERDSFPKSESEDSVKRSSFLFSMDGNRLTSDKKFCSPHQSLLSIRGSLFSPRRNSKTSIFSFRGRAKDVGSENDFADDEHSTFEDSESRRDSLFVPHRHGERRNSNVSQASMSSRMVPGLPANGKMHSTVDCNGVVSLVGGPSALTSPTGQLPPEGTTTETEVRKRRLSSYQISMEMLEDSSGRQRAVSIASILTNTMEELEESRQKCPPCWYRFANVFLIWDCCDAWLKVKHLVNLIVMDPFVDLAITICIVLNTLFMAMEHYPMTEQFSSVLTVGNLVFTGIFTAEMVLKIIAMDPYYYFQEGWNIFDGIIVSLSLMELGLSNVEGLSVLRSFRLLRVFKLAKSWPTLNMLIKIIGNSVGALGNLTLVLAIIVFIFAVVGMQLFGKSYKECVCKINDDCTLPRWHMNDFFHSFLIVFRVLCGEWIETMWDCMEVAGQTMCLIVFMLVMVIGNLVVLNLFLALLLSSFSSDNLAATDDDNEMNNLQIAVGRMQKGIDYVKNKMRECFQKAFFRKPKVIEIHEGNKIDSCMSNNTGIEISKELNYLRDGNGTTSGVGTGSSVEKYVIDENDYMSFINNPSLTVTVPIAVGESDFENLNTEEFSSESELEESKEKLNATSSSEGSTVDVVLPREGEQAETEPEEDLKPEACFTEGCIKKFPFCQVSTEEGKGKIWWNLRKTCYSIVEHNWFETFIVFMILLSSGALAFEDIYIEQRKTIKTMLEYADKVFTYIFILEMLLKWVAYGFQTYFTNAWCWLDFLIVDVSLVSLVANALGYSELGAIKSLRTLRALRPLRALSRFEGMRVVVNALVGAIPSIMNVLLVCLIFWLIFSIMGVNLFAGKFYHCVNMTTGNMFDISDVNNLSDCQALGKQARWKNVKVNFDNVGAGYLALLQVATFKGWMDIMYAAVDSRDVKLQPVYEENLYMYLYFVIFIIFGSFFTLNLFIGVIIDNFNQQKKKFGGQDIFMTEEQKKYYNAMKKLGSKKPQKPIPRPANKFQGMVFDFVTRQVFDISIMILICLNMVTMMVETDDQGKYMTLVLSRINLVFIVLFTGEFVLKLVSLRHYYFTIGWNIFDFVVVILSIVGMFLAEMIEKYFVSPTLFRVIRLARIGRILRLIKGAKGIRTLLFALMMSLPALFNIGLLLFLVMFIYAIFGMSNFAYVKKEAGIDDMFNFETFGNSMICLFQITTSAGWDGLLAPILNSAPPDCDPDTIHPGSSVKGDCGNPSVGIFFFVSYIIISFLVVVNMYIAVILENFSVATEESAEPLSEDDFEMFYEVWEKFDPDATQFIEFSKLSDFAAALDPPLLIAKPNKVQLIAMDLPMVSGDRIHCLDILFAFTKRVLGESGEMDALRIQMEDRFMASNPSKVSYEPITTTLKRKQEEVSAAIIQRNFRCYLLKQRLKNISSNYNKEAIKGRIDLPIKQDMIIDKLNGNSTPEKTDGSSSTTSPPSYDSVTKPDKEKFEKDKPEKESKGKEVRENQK
human voltage-gated sodium channel Nav1.3 (human), sequence (Q9NY46 whole entry): as above
human Nav1.3 (human), sequence (Q9NY46 whole entry): as above
human ERG (hERG) potassium channel (human), sequence (Q12809 whole entry): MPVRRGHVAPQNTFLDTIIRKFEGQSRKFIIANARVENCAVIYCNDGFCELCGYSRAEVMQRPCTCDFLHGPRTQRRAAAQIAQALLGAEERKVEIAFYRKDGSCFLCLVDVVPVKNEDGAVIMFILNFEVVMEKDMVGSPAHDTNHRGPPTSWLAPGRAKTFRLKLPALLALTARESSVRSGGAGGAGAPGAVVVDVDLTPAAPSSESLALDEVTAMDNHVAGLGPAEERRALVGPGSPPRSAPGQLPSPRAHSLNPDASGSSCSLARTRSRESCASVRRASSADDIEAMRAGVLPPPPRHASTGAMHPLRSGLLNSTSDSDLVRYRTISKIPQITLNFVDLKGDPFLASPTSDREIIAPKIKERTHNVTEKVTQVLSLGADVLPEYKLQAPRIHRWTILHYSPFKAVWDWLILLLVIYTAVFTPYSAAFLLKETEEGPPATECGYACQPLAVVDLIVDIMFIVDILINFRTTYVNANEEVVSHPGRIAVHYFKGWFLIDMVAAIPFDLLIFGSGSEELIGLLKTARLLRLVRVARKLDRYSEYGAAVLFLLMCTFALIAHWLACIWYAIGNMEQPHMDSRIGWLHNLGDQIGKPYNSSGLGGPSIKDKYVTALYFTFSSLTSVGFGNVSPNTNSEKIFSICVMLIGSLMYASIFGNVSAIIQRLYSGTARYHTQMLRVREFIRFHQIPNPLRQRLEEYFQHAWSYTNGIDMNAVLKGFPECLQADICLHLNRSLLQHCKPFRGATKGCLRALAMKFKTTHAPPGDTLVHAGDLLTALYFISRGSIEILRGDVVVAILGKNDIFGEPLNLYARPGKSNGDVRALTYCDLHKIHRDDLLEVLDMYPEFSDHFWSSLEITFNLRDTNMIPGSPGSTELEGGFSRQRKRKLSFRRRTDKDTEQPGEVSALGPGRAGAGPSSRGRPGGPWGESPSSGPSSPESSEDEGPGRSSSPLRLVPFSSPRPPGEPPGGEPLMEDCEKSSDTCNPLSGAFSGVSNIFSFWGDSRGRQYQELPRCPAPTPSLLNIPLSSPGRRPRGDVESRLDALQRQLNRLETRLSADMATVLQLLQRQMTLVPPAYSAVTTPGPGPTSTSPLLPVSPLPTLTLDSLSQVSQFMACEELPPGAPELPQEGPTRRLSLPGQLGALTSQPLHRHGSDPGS

Substance Ac-GpTx-1(1-34) (peptide) has a Nav1.5 Use IC50 (µM), PatchXpress electrophysiology [1] greater than 10 µM.
Substance GpTx-2 (peptide) has an IWQ Use Nav1.3 [2] of 1.15 µM, an IWQ Use Nav1.5 [3] of 7.21 µM and an IWQ Use Nav1.7 [4] of 4.34 µM.
For GpTx-1(1-34) (peptide), the IWQ Use Nav1.3 [5] was 0.08 µM, the IWQ Use Nav1.7 [6] was 0.08 µM and the IWQ Use Nav1.5 [7] was 13.1 µM. The IWQ Use Nav1.3 [2] was 0.08 µM, the IWQ Use Nav1.5 [3] was 13.1 µM and the IWQ Use Nav1.7 [4] was 0.08 µM. It also gave an IWQ Use Nav1.3 [8] of 0.08 µM, an IWQ Use Nav1.7 [9] of 0.08 µM and an IWQ Use Nav1.5 [10] of 13.1 µM. It also gave an IWQ Use Nav1.3 (µM) (IC50, IonWorks Quattro population patch clamp) [11] of 0.08 µM, an IWQ Use Nav1.7 (µM) (IC50, IonWorks Quattro population patch clamp) [12] of 0.08 µM and an IWQ Use Nav1.5 (µM) (IC50, IonWorks Quattro population patch clamp) [13] of 13.1 µM. The IC50, peak inward hNav1.3 current, whole cell patch clamp, cells held at -140 mV [14] was 16.8 nM, the IWQ Use Nav1.3 [14] was 0.08 µM and the IWQ Use Nav1.3 (µM): IC50 of peak inward current block, IonWorks Quattro [14] was 0.08 µM. It also gave an IWQ Use Nav1.3 (µM); IC50 of peak inward current, IonWorks Quattro [14] of 0.08 µM, an IWQ Use Nav1.7 (µM) [IC50, IonWorks Quattro electrophysiology] [15] of 0.08 µM and an IWQ Use Nav1.3 (µM) [IC50, IonWorks Quattro electrophysiology] [16] of 0.08 µM. The IC50, hNav1.5 current, PatchXpress counterscreen [1] was 9800 nM, the IC50, peak inward hNav1.5 current, whole cell patch clamp, cells held at -140 mV [1] was 8900 nM and the IWQ Use Nav1.5 [1] was 13.1 µM. The IWQ Use Nav1.5 (µM): IC50 of peak inward current block, IonWorks Quattro [1] was 13.1 µM, the IWQ Use Nav1.5 (µM); IC50 of peak inward current, IonWorks Quattro [1] was 13.1 µM and the IWQ Use Nav1.5 (µM) [IC50, IonWorks Quattro electrophysiology] [17] was 13.1 µM. The IWQ Use Nav1.3 [18] was 0.08 µM, the IWQ Use Nav1.3 (µM) (IC50, IonWorks Quattro population patch clamp) [18] was 0.08 µM and the IWQ Use Nav1.3 (µM): IC50 of peak inward current, IonWorks Quattro [18] was 0.08 µM. For the same substance, the IWQ Use Nav1.3 (µM); IC50 of peak inward current, IonWorks Quattro [18] was 0.08 µM, the Nav1.3 Use IC50 (PatchXpress whole cell patch clamp) [18] was 10 nM and the IWQ Use Nav1.7 [19] was 0.08 µM. It also gave an IWQ Use Nav1.7 (µM) (IC50, IonWorks Quattro population patch clamp) [19] of 0.08 µM, an IWQ Use Nav1.7 (µM): IC50 of peak inward current, IonWorks Quattro [19] of 0.08 µM and an IWQ Use Nav1.7 (µM); IC50 of peak inward current, IonWorks Quattro [19] of 0.08 µM. It also gave a Nav1.7 Use IC50 (PatchXpress whole cell patch clamp) [19] of 5 nM, a Nav1.7 Use IC50 (µM); PatchXpress whole cell patch clamp electrophysiology [19] of 0.005 µM and an IC50, peak inward hNav1.7 current, whole cell patch clamp, cells held at -140 mV [20] of 7.4 nM. For the same substance, the IWQ Use Nav1.7 [20] was 0.08 µM, the IWQ Use Nav1.7 (µM): IC50 of peak inward current block, IonWorks Quattro [20] was 0.08 µM and the IWQ Use Nav1.7 (µM); IC50 of peak inward current, IonWorks Quattro [20] was 0.08 µM. For the same substance, the inhibition of NaV1.7 activity, IonWorks Quattro, venom sub-fraction 11 [20] was greater than 90%, the IC50, hERG current, PatchXpress counterscreen [21] was greater than 10000 nM and the IWQ Use Nav1.5 [22] was 13.1 µM. It also gave an IWQ Use Nav1.5 (µM) (IC50, IonWorks Quattro population patch clamp) [22] of 13.1 µM, an IWQ Use Nav1.5 (µM): IC50 of peak inward current, IonWorks Quattro [22] of 13.1 µM and an IWQ Use Nav1.5 (µM); IC50 of peak inward current, IonWorks Quattro [22] of 13.1 µM. For the same substance, the Nav1.5 Use IC50 (PatchXpress whole cell patch clamp) [22] was greater than 10000 nM, the IWQ Use Nav1.3 (µM); IC50 of peak inward current, IonWorks Quattro [23] was 0.08 µM and the IWQ Use Nav1.7 (µM); IC50 of peak inward current, IonWorks Quattro [24] was 0.08 µM. It also gave an IWQ Use Nav1.5 (µM); IC50 of peak inward current, IonWorks Quattro [25] of 13.1 µM, an IWQ Use Nav1.3 [26] of 0.08 µM and an IWQ Use Nav1.7 [27] of 0.08 µM. For the same substance, the IWQ Use Nav1.5 [28] was 13.1 µM and the IWQ Use Nav1.3 [29] was 0.08 µM.
For GpTx-6(1-34) (peptide), the IWQ Use Nav1.3 [2] was 0.54 µM, the IWQ Use Nav1.4 [30] was 4.1 µM and the IWQ Use Nav1.5 [3] was 7.3 µM. It also gave an IWQ Use Nav1.7 [4] of 1.3 µM.
[D-Phe5]GpTx-1(1-34) (peptide) was tested, and the IWQ Use Nav1.7 (µM): IC50 of peak inward current, IonWorks Quattro [20] was 1.23 µM.
With Huwentoxin-IV (peptide) the Nav1.4 Use IC50 (PatchXpress whole cell patch clamp) [31] was 4500 nM, the Nav1.3 Use IC50 (PatchXpress whole cell patch clamp) [18] was 22 nM and the Nav1.7 Use IC50 (PatchXpress whole cell patch clamp) [19] was 32 nM.
GpTx-1(1-34)-FreeAcid (peptide) gave an IWQ Use Nav1.3 (µM) (IC50, IonWorks Quattro population patch clamp) [18] of 0.54 µM and an IWQ Use Nav1.5 (µM) (IC50, IonWorks Quattro population patch clamp) [22] of 9.44 µM.
For ProTxII (peptide), the Nav1.4 Use IC50 (PatchXpress whole cell patch clamp) [31] was 32 nM, the Nav1.3 Use IC50 (PatchXpress whole cell patch clamp) [18] was 15 nM and the Nav1.7 Use IC50 (PatchXpress whole cell patch clamp) [19] was 2 nM. For the same substance, the Nav1.5 Use IC50 (PatchXpress whole cell patch clamp) [22] was 104 nM.
With GpTx-6(1-35) (peptide) the IWQ Use Nav1.3 [2] was 1.7 µM, the IWQ Use Nav1.4 [30] was 17.4 µM and the IWQ Use Nav1.5 [3] was 14.6 µM. The IWQ Use Nav1.7 [4] was 9.6 µM.
Substance “[Ala5;Phe6;Leu26;Arg28]GpTx-1(1-34) (peptide)” has an IWQ Use Nav1.3 (µM); IC50 of peak inward current, IonWorks Quattro [2] of 0.04 µM, an IWQ Use Nav1.4 (µM); IC50 of peak inward current, IonWorks Quattro [30] of 5 µM and an IWQ Use Nav1.5 (µM); IC50 of peak inward current, IonWorks Quattro [3] of 5 µM. It also gave an IWQ Use Nav1.7 (µM); IC50 of peak inward current, IonWorks Quattro [4] of 0.05 µM, a Nav1.3 Use IC50 (PatchXpress electrophysiology) [18] of 0.008 µM and a Nav1.7 Use IC50 (PatchXpress electrophysiology) [19] of 0.002 µM. The Nav1.5 Use IC50 (PatchXpress electrophysiology) [22] was greater than 10 µM.
For [D-Phe34]GpTx-1(1-34) (peptide), the IWQ Use Nav1.3 [26] was 0.52 µM, the IWQ Use Nav1.7 [27] was 0.98 µM and the IWQ Use Nav1.5 [28] was 20.7 µM.
Huwentoxin-I (peptide) was tested, and the Nav1.4 Use IC50 (PatchXpress whole cell patch clamp) [31] was 24900 nM, the Nav1.3 Use IC50 (PatchXpress whole cell patch clamp) [18] was 905 nM and the Nav1.5 Use IC50 (PatchXpress whole cell patch clamp) [22] was greater than 30000 nM.
Work on GpTx-3 (peptide) yielded an IWQ Use Nav1.3 [2] of 9.37 µM, an IWQ Use Nav1.4 [30] of 20 µM and an IWQ Use Nav1.5 [3] of 7.8 µM. It also gave an IWQ Use Nav1.7 [4] of 8.93 µM.
Work on GpTx-4 (peptide) yielded an IWQ Use Nav1.3 [2] of 4.92 µM, an IWQ Use Nav1.4 [30] of 11 µM and an IWQ Use Nav1.5 [3] of 10.4 µM. It also gave an IWQ Use Nav1.7 [4] of 9.25 µM.
